Results as given in paper PMC7840905.

Columns and labels:
[1] = biological target: SARS-CoV-2 Nsp15 H235A (SARS-CoV-2); experiment: SEC
[2] = biological target: SARS-CoV-2 Nsp15 H235A (SARS-CoV-2); experiment: cryo-EM structure
[3] = biological target: SARS-CoV-2 Nsp15 H250A (SARS-CoV-2); experiment: SEC

| Substance | stoichiometry N [1] | stoichiometry N [2] | stoichiometry N [3] |
| --- | --- | --- | --- |
| SARS-CoV-2 Nsp15 H235A (enzyme) | 6 | 6 | – |
| SARS-CoV-2 Nsp15 H250A (enzyme) | – | – | 6 |
